Data taken from patent US20210024646A1 (FUDAN UNIVERSITY, published 2021).

Key:
[1] = molecular target: T1, extracellular domain of human CD73 protein (CD73-ECD), C-terminus polyhistidine-tagged (human, UniProt P21589 27-547); assay: ELISA, coated CD73-ECD
T1 construct: also called Human CD73-ECD; human recombinant CD73 enzyme (CD73 extracellular domain)
T1 sequence: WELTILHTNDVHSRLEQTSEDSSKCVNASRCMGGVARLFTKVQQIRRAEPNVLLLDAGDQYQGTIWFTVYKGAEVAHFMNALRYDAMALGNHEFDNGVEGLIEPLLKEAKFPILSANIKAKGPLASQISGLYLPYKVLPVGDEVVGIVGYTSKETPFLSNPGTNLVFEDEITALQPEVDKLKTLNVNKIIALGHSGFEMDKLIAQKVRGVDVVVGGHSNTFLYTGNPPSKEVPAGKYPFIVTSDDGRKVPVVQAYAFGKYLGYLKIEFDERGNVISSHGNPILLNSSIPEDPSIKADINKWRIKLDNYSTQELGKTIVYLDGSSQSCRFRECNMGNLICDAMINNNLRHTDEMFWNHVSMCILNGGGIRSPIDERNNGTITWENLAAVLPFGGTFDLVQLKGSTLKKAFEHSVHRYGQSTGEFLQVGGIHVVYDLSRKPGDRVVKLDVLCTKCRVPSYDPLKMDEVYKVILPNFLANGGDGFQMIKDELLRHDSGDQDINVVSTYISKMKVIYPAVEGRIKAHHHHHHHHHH

[2] = molecular target: T2, CD73 on the surface of human tumor cells (human, UniProt P21589 27-549); assay: flow cytometry, NCI-H1299 cells
T2 construct: whole, on cells; One entry for endogenous CD73 on all cell lines; the cell line is named under assay or readout; also called CD73 receptors on the surface of tumor cells; tumor cell CD73
T2 sequence (looked up): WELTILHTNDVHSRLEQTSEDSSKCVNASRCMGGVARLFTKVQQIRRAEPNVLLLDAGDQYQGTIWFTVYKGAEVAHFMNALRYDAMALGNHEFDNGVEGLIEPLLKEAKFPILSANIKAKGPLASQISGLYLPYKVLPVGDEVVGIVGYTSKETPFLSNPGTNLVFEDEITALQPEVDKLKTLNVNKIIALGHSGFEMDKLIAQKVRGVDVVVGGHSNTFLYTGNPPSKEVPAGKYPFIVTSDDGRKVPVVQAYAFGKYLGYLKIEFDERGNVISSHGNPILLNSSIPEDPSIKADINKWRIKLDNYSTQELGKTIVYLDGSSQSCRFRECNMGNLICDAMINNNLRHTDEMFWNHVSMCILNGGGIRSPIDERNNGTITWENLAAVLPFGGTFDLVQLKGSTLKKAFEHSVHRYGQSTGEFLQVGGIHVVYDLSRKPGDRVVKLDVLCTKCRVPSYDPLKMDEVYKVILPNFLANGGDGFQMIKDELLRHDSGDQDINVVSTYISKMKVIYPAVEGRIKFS

B1: Hu001c-21 (antibody, V domains shown)
VH: QVQLVQSGAEVKKPGASVKVSCKASGYTFTNYYIYWVRQAPGQRLEWIGWIYPGNLNIKYNEKFKGRVTITADKSASTAYMELSSLRSEDTAVYYCARDDNYAWFAYWGQGTLVTVSS
VL: DIQMTQSPSSLSASVGDRVTITCKASQDVSTAVAWYQQKPGKAPKLLIYWTNTRHTGVPSRFSGSGSGTDHTLTISSLQPEDFATYYCQQHYSTPFTFGQGTKLEIK
notes: Humanized
binding result [1]: binds

B2: Hu001c-32 (antibody, V domains shown)
VH: QVQLVQSGAEVKKPGASVKVSCKASGYTFTNYYIYWVKQRPGQRLEWIGWIYPGNLNIKYNEKFKGRSTLTADKSASTAYMELSSLRSEDTAVYYCARDDNYAWFAYWGQGTLVTVSS
VL: DIQMTQSPSSLSASVGDRVTITCKASQDVSTAVAWYQQKPGKAPKLLIYWTNTRHTGVPSRFSGSGSGTDHTLTISSLQPEDFATYYCQQHYSTPFTFGQGTKLEIK
notes: Humanized
binding result [1]: binds | binding result [2]: binds

B3: Hu001c-30 (antibody, V domains shown)
VH: QVQLVQSGAEVKKPGASVKVSCKASGYTFTNYYIYWVKQRPGQRLEWIGWIYPGNLNIKYNEKFKGRSTLTADKSASTAYMELSSLRSEDTAVYYCARDDNYAWFAYWGQGTLVTVSS
VL: DIQMTQSPSSLSASVGDRVTITCKASQDVSTAVAWYQQKPGKAPKLLIYWTNTRHTGVPSRFSGSGSGTDFTLTISSLQPEDFATYYCQQHYSTPFTFGQGTKLEIK
notes: Humanized
binding result [1]: binds | binding result [2]: binds

B4: Hu001c-28 (antibody, V domains shown)
VH: QVQLVQSGAEVKKPGASVKVSCKTSGYTFTNYYIYWVKQRPGQGLEWIGWIYPGNLNIKYNEKFKGRVTITADKSASTAYMELSSLRSEDTAVYYCARDDNYAWFAYWGQGTLVTVSS
VL: DIQMTQSPSSLSASVGDRVTITCKASQDVSTAVAWYQQKPGKSPKLLIYWTNTRHTGVPSRFSGSGSGTDHTLTISSLQPEDFATYYCQQHYSTPFTFGQGTKLEIK
notes: Humanized
binding result [1]: binds | binding result [2]: binds

B5: Hu001c-31 (antibody, V domains shown)
VH: QVQLVQSGAEVKKPGASVKVSCKASGYTFTNYYIYWVRQAPGQRLEWIGWIYPGNLNIKYNEKFKGRSTLTADKSASTAYMELSSLRSEDTAVYYCARDDNYAWFAYWGQGTLVTVSS
VL: DIQMTQSPSSLSASVGDRVTITCKASQDVSTAVAWYQQKPGKAPKLLIYWTNTRHTGVPSRFSGSGSGTDHTLTISSLQPEDFATYYCQQHYSTPFTFGQGTKLEIK
notes: Humanized
binding result [1]: binds | binding result [2]: binds

B6: Hu002c-6 (antibody, V domains shown)
VH: QVQLVQSGAEVKKPGASVKVSCKASGYTLTSYWMHWVRQAPGQGLEWIGEINPSQGRSNYNEKFKSRVTLTVDRSTSTVYMELSSLRSEDTAVYYCARRGVSGNYFDYWGQGTLVTVSS
VL: DIQMTQSPSSLSASVGDRVTITCKASQDINTYLSWFQQKPGKAPKSLIYRSNILVSGVPSRFSGSGSGQDYTLTISSLQPEDFATYYCLQYDEFPYTFGQGTKLEIK
notes: Humanized
binding result [1]: binds | binding result [2]: binds

B7: Hu002c-8 (antibody, V domains shown)
VH: QVQLVQSGAEVKKPGASVKVSCKASGYTLTSYWMHWVRQAPGQGLEWIGEINPSQGRSNYNEKFKSRVTLTVDRSTSTVYMELSSLRSEDTAVYYCARRGVSGNYFDYWGQGTLVTVSS
VL: DIQMTQSPSSLSASVGDRVTITCKASQDINTYLSWFQQKPGKSPKSLIYRSNILVSGVPSRFSGSGSGQDYTLTISSLQPEDFAIYYCLQYDEFPYTFGGGTKLEI
notes: Humanized
binding result [1]: binds | binding result [2]: binds

B8: Hu002c-3 (antibody, V domains shown)
VH: QVQLVQSGAEVKKPGASVKVSCKASGYTLTSYWMHWVRQAPGQGLEWMGEINPSQGRSNYNEKFKSRVTMTRDTSTSTVYMELSSLRSEDTAVYYCARRGVSGNYFDYWGQGTLVTVSS
VL: DIQMTQSPSSLSASVGDRVTITCKASQDINTYLSWFQQKPGKSPKSLIYRSNILVSGVPSRFSGSGSGQDYTLTISSLQPEDFATYYCLQYDEFPYTFGGGTKLEIK
notes: Humanized
binding result [1]: binds | binding result [2]: binds

B9: Hu002c-11 (antibody, V domains shown)
VH: QVQLVQSGAEVKKPGASVKVSCKASGYTLTSYWMHWVRQAPGQGLEWIGEINPSQGRSNYNEKFKSKVTLTVDRSTSTVYMELSSLRSEDTAVYYCARRGVSGNYFDYWGQGTLVTVSS
VL: DIQMTQSPSSLSASVGDRVTITCKASQDINTYLSWFQQKPGKSPKSLIYRSNILVSGVPSRFSGSGSGQDYTLTISSLQPEDFATYYCLQYDEFPYTFGGGTKLEIK
notes: Humanized
binding result [1]: binds | binding result [2]: binds

B10: Hu002c-4 (antibody, V domains shown)
VH: QVQLVQSGAEVKKPGASVKVSCKASGYTLTSYWMHWVRQAPGQGLEWMGEINPSQGRSNYNEKFKSRVTMTRDTSTSTVYMELSSLRSEDTAVYYCARRGVSGNYFDYWGQGTLVTVSS
VL: DIQMTQSPSSLSASVGDRVTITCKASQDINTYLSWFQQKPGKSPKSLIYRSNILVSGVPSRFSGSGSGQDYTLTISSLQPEDFAIYYCLQYDEFPYTFGGGTKLEI
notes: Humanized
binding result [1]: binds | binding result [2]: binds

B11: Hu002c-10 (antibody, V domains shown)
VH: QVQLVQSGAEVKKPGASVKVSCKASGYTLTSYWMHWVRQAPGQGLEWIGEINPSQGRSNYNEKFKSKVTLTVDRSTSTVYMELSSLRSEDTAVYYCARRGVSGNYFDYWGQGTLVTVSS
VL: DIQMTQSPSSLSASVGDRVTITCKASQDINTYLSWFQQKPGKAPKSLIYRSNILVSGVPSRFSGSGSGQDYTLTISSLQPEDFATYYCLQYDEFPYTFGQGTKLEIK
notes: Humanized
binding result [1]: binds | binding result [2]: binds

B12: Hu002c-15 (antibody, V domains shown)
VH: QVQLVQSGAEVKKPGASVKVSCKASGYTLTSYWMHWVKKAPGQGLEWIGEINPSQGRSNYNEKFKSKVTLTVDRSTSTVYMELSSLRSEDTAVYYCARRGVSGNYFDYWGQGTLVTVSS
VL: DIQMTQSPSSLSASVGDRVTITCKASQDINTYLSWFQQKPGKSPKSLIYRSNILVSGVPSRFSGSGSGQDYTLTISSLQPEDFATYYCLQYDEFPYTFGGGTKLEIK
notes: Humanized
binding result [1]: binds | binding result [2]: binds

B13: Hu002c-14 (antibody, V domains shown)
VH: QVQLVQSGAEVKKPGASVKVSCKASGYTLTSYWMHWVKKAPGQGLEWIGEINPSQGRSNYNEKFKSKVTLTVDRSTSTVYMELSSLRSEDTAVYYCARRGVSGNYFDYWGQGTLVTVSS
VL: DIQMTQSPSSLSASVGDRVTITCKASQDINTYLSWFQQKPGKAPKSLIYRSNILVSGVPSRFSGSGSGQDYTLTISSLQPEDFATYYCLQYDEFPYTFGQGTKLEIK
notes: Humanized
binding result [1]: binds | binding result [2]: binds

B14: Hu002c-7 (antibody, V domains shown)
VH: QVQLVQSGAEVKKPGASVKVSCKASGYTLTSYWMHWVRQAPGQGLEWIGEINPSQGRSNYNEKFKSRVTLTVDRSTSTVYMELSSLRSEDTAVYYCARRGVSGNYFDYWGQGTLVTVSS
VL: DIQMTQSPSSLSASVGDRVTITCKASQDINTYLSWFQQKPGKSPKSLIYRSNILVSGVPSRFSGSGSGQDYTLTISSLQPEDFATYYCLQYDEFPYTFGGGTKLEIK
notes: Humanized
binding result [1]: binds | binding result [2]: binds

B15: Hu002c-2 (antibody, V domains shown)
VH: QVQLVQSGAEVKKPGASVKVSCKASGYTLTSYWMHWVRQAPGQGLEWMGEINPSQGRSNYNEKFKSRVTMTRDTSTSTVYMELSSLRSEDTAVYYCARRGVSGNYFDYWGQGTLVTVSS
VL: DIQMTQSPSSLSASVGDRVTITCKASQDINTYLSWFQQKPGKAPKSLIYRSNILVSGVPSRFSGSGSGQDYTLTISSLQPEDFATYYCLQYDEFPYTFGQGTKLEIK
notes: Humanized
binding result [1]: binds | binding result [2]: binds

B16: Hu002c-16 (antibody, V domains shown)
VH: QVQLVQSGAEVKKPGASVKVSCKASGYTLTSYWMHWVKKAPGQGLEWIGEINPSQGRSNYNEKFKSKVTLTVDRSTSTVYMELSSLRSEDTAVYYCARRGVSGNYFDYWGQGTLVTVSS
VL: DIQMTQSPSSLSASVGDRVTITCKASQDINTYLSWFQQKPGKSPKSLIYRSNILVSGVPSRFSGSGSGQDYTLTISSLQPEDFAIYYCLQYDEFPYTFGGGTKLEI
notes: Humanized
binding result [1]: binds | binding result [2]: binds

B17: Hu002c-12 (antibody, V domains shown)
VH: QVQLVQSGAEVKKPGASVKVSCKASGYTLTSYWMHWVRQAPGQGLEWIGEINPSQGRSNYNEKFKSKVTLTVDRSTSTVYMELSSLRSEDTAVYYCARRGVSGNYFDYWGQGTLVTVSS
VL: DIQMTQSPSSLSASVGDRVTITCKASQDINTYLSWFQQKPGKSPKSLIYRSNILVSGVPSRFSGSGSGQDYTLTISSLQPEDFAIYYCLQYDEFPYTFGGGTKLEI
notes: Humanized
binding result [1]: binds | binding result [2]: binds
